Results on 1 substance are retold here after patent US20220241413A1, “COMBINATION THERAPIES USING CD-38 ANTIBODIES” (Takeda Pharmaceutical Company Limited, priority 2019, published 2022).

The nature of data set [1]: AB79-1501 study, AB79 plus PomDex combination cohort in RRMM: safety. Type of data set: in vivo. An excerpt: This is a multicenter, dose-escalation, open-label, single-arm, Phase 1/2a study designed to determine the safety, tolerability, efficacy, PK, and immunogenicity of AB79 monotherapy in patients with RRMM, and to provide a preliminary assessment of its activity against MM.
The phase 1 portion of the study evaluates administration of single agent AB79 for dose-limiting toxicity (DLT) to determine the MTD or the RP2D for further assessment in phase 2a. A recommended dose below the MTD is identified based on the review of safety, PK, PD (e.g., CD38 occupancy), and clinical data from the phase 1 portion of the study. The safety and tolerability of AB79 is assessed by recording and analyzing TEAEs, dose modifications, treatment discontinuations, vital signs, physical examinations, serum chemistry and hematology, urinalysis, ECGs, and concomitant medications. In phase 1, approximately 6 doses of AB79 are evaluated in ascending cohorts of 3 to 6 patients per cohort. Cohorts may be expanded by enrolling additional patients to further inform selection of the RP2D before enrolling in the Phase 2a portion of the study. In the phase 2a portion of this study, Grade 4 or higher nonhematologic toxicity is monitored starting from the first 10 enrolled patients and then every 10 patients thereafter. Additionally, a cohort of patients receive AB79 combined with the backbone regimen of pomalidomide and dexamethasone (PomDex) in patients with RRMM who have received at least 2 prior therapies and are refractory to the last therapy before study entry.
The study provides a Confirmation Cohort and a Combination Cohort. Each Cohort is administered a dose of 300 mg AB79 subcutaneously weekly for 8 weeks during Cycles 1 and 2 (8 doses), every other week during Cycles 3 to 6 for 16 weeks (8 doses), and then once every 4 weeks until PD in subsequent cycles. Safety and available efficacy, PK, and pharmacodynamics are reviewed at least after 6 patients in each subgroup have received 1 cycle of therapy, then on an ongoing basis. […] The Combination Cohort also receives pomalidomide and dexamethasone (PomDex), and given according to product labeling (Pomalyst USPI). […] In the Combination Cohort, up to 6 patients are initially enrolled and safety in Cycle 1 reviewed. […] If 2 of 6 patients develop DLTs, an additional cohort of 6 patients is tested at a de-escalated dose; an intermediate or more conservative dose schedule may also be implemented as a means to provide an overall lower dose. A lower dose of pomalidomide is also considered based on available safety data. […] If 2 of 6 patients develop DLTs at the lower dose, this cohort is stopped for further evaluation.

For data set [2], the system named is relapsed/refractory multiple myeloma (RRMM). As to the kind of experiment: AB79-1501 study, AB79 plus PomDex combination cohort in RRMM: disease response. The class given is in vivo, human. The source says:
This is a multicenter, dose-escalation, open-label, single-arm, Phase 1/2a study designed to determine the safety, tolerability, efficacy, PK, and immunogenicity of AB79 monotherapy in patients with RRMM, and to provide a preliminary assessment of its activity against MM. This study is an amendment to the Phase 1/2a study in RRMM described in Example 1 (a) to allow for an increase in the number of patients enrolled in the Phase 1 study; and (b) to add a cohort of patients to evaluate AB79 combined with the backbone regimen of pomalidomide and dexamethasone (PomDex) in patients with RRMM who have received at least 2 prior therapies and are refractory to the last therapy before study entry. PomDex is approved for this patient population and adding an anti-CD38 monoclonal antibody to it, especially one that is given subcutaneously (SC), could be beneficial and convenient for patients.
The study provides a Confirmation Cohort and a Combination Cohort. […]
The preliminary efficacy of AB79 for MM is evaluated by measuring the ORR (defined as the proportion of patients who achieved a PR or better during study) and the composition of sCR, CR, VGPR, and PR as defined by the IMWG Uniform Response Criteria. MR will also be analyzed. In addition, the efficacy of AB79 is assessed in patients by measuring DOR, PFS, and 1-year OS. TTR will also be measured. […]

The mark [3] stands for this setting: AB79 plus PomDex, RRMM, 5 patients treated.

In the case of “AB79: anti-CD38 monoclonal IgG1 antibody; heavy chain SEQ ID NO:11, light chain SEQ ID NO:12”, the “number of DLTs (neutropenia)” value in data set [1] (AB79 plus PomDex cohort) is recorded as 1 DLT. For the same substance, in data set [1] (AB79 plus PomDex combination), the “drug-related SAEs or AEs leading to study drug discontinuation, or on-study deaths” value is “No” and the systemic reactions entry is reported as “no systemic reactions”. In data set [1] (setting [3]), the “TEAE regardless of causality: cough” value came out at 2 patients and the “TEAE regardless of causality: neutropenia” value turned out to be 2 patients. In data set [2], the “clinical benefit rate (minor response or better)” value was 100% and the “preliminary objective response rate (ORR)” value is recorded as 40%.
